Measured values: patent US20260184748A1 (University of Pennsylvania, published 2026)
Where no end group is shown, it is not given here.

Key:
Assay in all cases: cell-based or functional assay
HTR1A = biological target: T1, HTR1A (UniProt P08908 1-422)
T1 sequence (looked up): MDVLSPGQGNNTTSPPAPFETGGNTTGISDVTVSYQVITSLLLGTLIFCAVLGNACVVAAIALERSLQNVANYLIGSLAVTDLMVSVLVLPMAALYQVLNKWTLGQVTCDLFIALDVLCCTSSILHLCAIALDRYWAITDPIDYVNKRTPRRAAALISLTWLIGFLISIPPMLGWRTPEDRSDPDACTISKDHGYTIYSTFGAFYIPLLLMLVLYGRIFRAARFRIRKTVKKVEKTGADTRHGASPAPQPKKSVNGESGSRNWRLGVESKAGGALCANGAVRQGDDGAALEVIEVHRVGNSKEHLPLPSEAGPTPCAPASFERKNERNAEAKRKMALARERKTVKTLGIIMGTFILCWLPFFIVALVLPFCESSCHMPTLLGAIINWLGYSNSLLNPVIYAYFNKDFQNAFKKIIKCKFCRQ

NPY1R = biological target: T2, NPY1R (UniProt P25929 1-384)
T2 sequence (looked up): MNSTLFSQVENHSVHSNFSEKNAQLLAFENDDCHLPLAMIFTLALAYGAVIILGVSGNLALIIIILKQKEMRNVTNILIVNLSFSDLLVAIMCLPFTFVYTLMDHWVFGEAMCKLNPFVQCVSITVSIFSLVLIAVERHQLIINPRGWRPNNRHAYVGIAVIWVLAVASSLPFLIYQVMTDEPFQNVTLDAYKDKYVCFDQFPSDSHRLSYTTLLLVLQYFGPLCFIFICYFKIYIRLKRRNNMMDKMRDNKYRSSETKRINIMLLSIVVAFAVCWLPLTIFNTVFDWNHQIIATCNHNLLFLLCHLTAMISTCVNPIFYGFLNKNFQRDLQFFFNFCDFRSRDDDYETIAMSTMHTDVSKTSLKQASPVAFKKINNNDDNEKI

NPY2R = biological target: T3, NPY2R (UniProt P49146 1-381)
T3 sequence (looked up): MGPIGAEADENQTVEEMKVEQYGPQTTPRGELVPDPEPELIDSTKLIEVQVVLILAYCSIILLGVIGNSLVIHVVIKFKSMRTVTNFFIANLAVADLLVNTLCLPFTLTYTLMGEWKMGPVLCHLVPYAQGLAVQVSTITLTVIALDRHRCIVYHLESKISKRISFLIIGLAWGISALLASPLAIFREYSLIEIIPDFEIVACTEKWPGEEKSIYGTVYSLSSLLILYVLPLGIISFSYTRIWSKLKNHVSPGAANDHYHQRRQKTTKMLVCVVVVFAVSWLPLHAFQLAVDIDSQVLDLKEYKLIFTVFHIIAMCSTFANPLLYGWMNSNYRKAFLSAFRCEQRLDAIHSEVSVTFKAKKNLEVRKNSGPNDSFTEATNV

P2RY6 = P2RY6 (UniProt Q15077 1-328)
PTGIR = PTGIR (UniProt P43119 1-386, limits assumed)
TACR2 = biological target: T4, TACR2 (UniProt P21452 1-398)
T4 sequence (looked up): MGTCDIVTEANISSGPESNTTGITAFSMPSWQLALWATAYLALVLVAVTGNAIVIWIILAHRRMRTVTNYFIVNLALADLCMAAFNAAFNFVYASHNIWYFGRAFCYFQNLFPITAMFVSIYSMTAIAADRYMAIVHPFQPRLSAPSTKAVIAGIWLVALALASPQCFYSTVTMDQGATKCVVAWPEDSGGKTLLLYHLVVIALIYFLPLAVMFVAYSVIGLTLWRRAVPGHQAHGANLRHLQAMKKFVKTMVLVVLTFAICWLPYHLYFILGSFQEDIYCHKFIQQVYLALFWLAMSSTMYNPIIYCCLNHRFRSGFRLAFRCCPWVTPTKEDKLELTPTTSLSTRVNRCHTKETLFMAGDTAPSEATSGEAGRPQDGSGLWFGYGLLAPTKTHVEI

CCKBR = biological target: T5, CCKBR (UniProt P32239 1-447)
T5 sequence (looked up): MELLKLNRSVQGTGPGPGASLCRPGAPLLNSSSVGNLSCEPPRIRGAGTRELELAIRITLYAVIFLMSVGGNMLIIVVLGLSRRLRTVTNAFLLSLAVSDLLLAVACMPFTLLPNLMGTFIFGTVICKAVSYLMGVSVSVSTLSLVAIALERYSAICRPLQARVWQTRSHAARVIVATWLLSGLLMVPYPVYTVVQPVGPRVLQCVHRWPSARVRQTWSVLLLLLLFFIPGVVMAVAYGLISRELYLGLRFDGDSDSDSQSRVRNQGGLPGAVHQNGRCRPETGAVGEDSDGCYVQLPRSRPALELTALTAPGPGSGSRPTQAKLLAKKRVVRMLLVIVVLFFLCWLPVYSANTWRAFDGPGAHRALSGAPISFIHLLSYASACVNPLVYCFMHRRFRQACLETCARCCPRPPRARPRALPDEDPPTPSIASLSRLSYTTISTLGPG

GLP1R = GLP1R (UniProt P43220 24-463)
GPR120 = biological target: T6, GPR120 (UniProt Q5NUL3 1-361, limits assumed)
T6 sequence (looked up): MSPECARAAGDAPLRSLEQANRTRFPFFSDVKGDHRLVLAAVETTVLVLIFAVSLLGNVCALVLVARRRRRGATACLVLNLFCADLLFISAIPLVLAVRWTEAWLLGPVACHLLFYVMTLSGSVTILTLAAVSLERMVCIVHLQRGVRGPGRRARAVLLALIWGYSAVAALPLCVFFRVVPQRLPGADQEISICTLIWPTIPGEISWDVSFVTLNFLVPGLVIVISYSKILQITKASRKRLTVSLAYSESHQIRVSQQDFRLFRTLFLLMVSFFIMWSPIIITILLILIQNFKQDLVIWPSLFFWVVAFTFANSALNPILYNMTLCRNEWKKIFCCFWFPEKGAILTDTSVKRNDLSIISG

PTGIR, sequence (P43119 whole entry): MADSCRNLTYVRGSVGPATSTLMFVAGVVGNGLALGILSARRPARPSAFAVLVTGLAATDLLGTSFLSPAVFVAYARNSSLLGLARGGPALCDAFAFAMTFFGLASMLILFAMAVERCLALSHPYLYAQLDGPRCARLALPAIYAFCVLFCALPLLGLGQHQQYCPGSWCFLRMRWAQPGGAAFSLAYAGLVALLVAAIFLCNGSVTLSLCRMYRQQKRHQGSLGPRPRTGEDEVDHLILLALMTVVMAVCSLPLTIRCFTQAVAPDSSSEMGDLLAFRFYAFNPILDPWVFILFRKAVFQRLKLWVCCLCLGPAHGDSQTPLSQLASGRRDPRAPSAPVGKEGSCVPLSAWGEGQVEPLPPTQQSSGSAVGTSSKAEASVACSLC
GLP1R, sequence (P43220 24-463 limits assumed): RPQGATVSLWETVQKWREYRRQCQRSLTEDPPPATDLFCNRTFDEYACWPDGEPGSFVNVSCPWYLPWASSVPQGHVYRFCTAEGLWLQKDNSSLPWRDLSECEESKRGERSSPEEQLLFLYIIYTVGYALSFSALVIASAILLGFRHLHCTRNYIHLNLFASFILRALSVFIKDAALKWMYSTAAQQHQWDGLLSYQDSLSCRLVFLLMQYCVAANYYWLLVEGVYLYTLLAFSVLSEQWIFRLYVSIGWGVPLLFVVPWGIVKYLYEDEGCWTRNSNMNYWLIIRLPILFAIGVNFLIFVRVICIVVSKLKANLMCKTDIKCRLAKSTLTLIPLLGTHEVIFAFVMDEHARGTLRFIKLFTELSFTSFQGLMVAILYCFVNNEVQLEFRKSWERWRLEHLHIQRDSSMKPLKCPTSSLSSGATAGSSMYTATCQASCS
P2RY6, sequence (Q15077 whole entry): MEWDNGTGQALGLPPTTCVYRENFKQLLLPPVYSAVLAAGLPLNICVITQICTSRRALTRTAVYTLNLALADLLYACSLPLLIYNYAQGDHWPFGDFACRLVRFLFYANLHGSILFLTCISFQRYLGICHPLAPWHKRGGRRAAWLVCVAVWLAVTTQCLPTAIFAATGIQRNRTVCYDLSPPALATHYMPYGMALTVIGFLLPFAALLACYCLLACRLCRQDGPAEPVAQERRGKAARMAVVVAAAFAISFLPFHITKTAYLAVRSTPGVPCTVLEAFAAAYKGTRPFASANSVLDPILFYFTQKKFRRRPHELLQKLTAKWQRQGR

## QATVGDVNTDRPGLLDLK (also: synthesised on Rink amide resin, C-terminal amide not given here outright) [octadecaneuropeptide (ODN)]
HTR1A
  % Activity, arrestin, antagonist mode, 2.5 uM: -6.2%
NPY1R
  % Activity, arrestin, antagonist mode, 2.5 uM: -2.7%
NPY2R
  % Activity, arrestin, antagonist mode, 2.5 uM: -10.3%
P2RY6
  % Activity, arrestin, antagonist mode, 2.5 uM: -15.1%
PTGIR
  % Activity, arrestin, antagonist mode, 2.5 uM: -20%
TACR2
  % Activity, arrestin, antagonist mode, 2.5 uM: 8.3%
CCKBR
  % Activity, arrestin, antagonist mode, 2.5 uM: -7.8%
GLP1R
  % Activity, arrestin, antagonist mode, 2.5 uM: -11%
GPR120
  % Activity, arrestin, antagonist mode, 2.5 uM: 22.7%
